In general, Kd refers to the free concentration of one partner at which half of the binding sites on the other are occupied at equilibrium, for simple one-to-one binding. The low end stands for a tighter complex, the high end for a looser complex.

First the molecules themselves.
B1: target 1 MT 5'PFS CUA 3'PFS UGA (mixed)
RNA 1: CACCCGUGCAAAAAUGCAGGGGUCUAAAACUGAGCGGAUAACCUCUCUAUGG
RNA 2: GGGAAUGGAUCCACAUCUACGAAUUCCUACCAUAGAGAGGUUAUCCGCUCAUGAAGAUCGGAAGAGCACACGU
B2: target 1 MT 5'PFS UUG 3'PFS AUA (mixed)
RNA 1: CACCCGUGCAAAAAUGCAGGGGUCUAAAACUGAGCGGAUAACCUCUCUAUGG
RNA 2: GGGAAUGGAUCCACAUCUACGAAUUCUUGCCAUAGAGAGGUUAUCCGCUCAAUAAGAUCGGAAGAGCACACGU
B3: target 1 MT 5'PFS GUU 3'PFS AGC (mixed)
RNA 1: CACCCGUGCAAAAAUGCAGGGGUCUAAAACUGAGCGGAUAACCUCUCUAUGG
RNA 2: GGGAAUGGAUCCACAUCUACGAAUUCGUUCCAUAGAGAGGUUAUCCGCUCAAGCAGAUCGGAAGAGCACACGU
B4: target 1 MT 5'PFS UGC 3'PFS UCA (mixed)
RNA 1: CACCCGUGCAAAAAUGCAGGGGUCUAAAACUGAGCGGAUAACCUCUCUAUGG
RNA 2: GGGAAUGGAUCCACAUCUACGAAUUCUGCCCAUAGAGAGGUUAUCCGCUCAUCAAGAUCGGAAGAGCACACGU
B5: target 1 MT 5'PFS UAA 3'PFS UUC (mixed)
RNA 1: CACCCGUGCAAAAAUGCAGGGGUCUAAAACUGAGCGGAUAACCUCUCUAUGG
RNA 2: GGGAAUGGAUCCACAUCUACGAAUUCUAACCAUAGAGAGGUUAUCCGCUCAUUCAGAUCGGAAGAGCACACGU
B6: target 1 MT 5'PFS UUA 3'PFS CAA (mixed)
RNA 1: CACCCGUGCAAAAAUGCAGGGGUCUAAAACUGAGCGGAUAACCUCUCUAUGG
RNA 2: GGGAAUGGAUCCACAUCUACGAAUUCUUACCAUAGAGAGGUUAUCCGCUCACAAAGAUCGGAAGAGCACACGU
B7: target 1 MT 5'PFS GUU 3'PFS AGG (mixed)
RNA 1: CACCCGUGCAAAAAUGCAGGGGUCUAAAACUGAGCGGAUAACCUCUCUAUGG
RNA 2: GGGAAUGGAUCCACAUCUACGAAUUCGUUCCAUAGAGAGGUUAUCCGCUCAAGGAGAUCGGAAGAGCACACGU
B8: target 1 MT 5'PFS CCC 3'PFS UGC (mixed)
RNA 1: CACCCGUGCAAAAAUGCAGGGGUCUAAAACUGAGCGGAUAACCUCUCUAUGG
RNA 2: GGGAAUGGAUCCACAUCUACGAAUUCCCCCCAUAGAGAGGUUAUCCGCUCAUGCAGAUCGGAAGAGCACACGU
B9: target 1 MT 5'PFS GUU 3'PFS AGU (mixed)
RNA 1: CACCCGUGCAAAAAUGCAGGGGUCUAAAACUGAGCGGAUAACCUCUCUAUGG
RNA 2: GGGAAUGGAUCCACAUCUACGAAUUCGUUCCAUAGAGAGGUUAUCCGCUCAAGUAGAUCGGAAGAGCACACGU
B10: target 1 insG 3' of 9,insU 3' of 9 (mixed)
RNA 1: CACCCGUGCAAAAAUGCAGGGGUCUAAAACUGAGCGGAUAACCUCUCUAUGG
RNA 2: GGGAAUGGAUCCACAUCUACGAAUUCGUACCAUAGAGAGGUUAGUUCCGCUCACCGAGAUCGGAAGAGCACACGU
B11: target 1 MT 5'PFS UAA 3'PFS UUA (mixed)
RNA 1: CACCCGUGCAAAAAUGCAGGGGUCUAAAACUGAGCGGAUAACCUCUCUAUGG
RNA 2: GGGAAUGGAUCCACAUCUACGAAUUCUAACCAUAGAGAGGUUAUCCGCUCAUUAAGAUCGGAAGAGCACACGU
B12: target 1 MT 5'PFS UGC 3'PFS UCG (mixed)
RNA 1: CACCCGUGCAAAAAUGCAGGGGUCUAAAACUGAGCGGAUAACCUCUCUAUGG
RNA 2: GGGAAUGGAUCCACAUCUACGAAUUCUGCCCAUAGAGAGGUUAUCCGCUCAUCGAGAUCGGAAGAGCACACGU
B13: target 1 MT 5'PFS CCG 3'PFS AAA (mixed)
RNA 1: CACCCGUGCAAAAAUGCAGGGGUCUAAAACUGAGCGGAUAACCUCUCUAUGG
RNA 2: GGGAAUGGAUCCACAUCUACGAAUUCCCGCCAUAGAGAGGUUAUCCGCUCAAAAAGAUCGGAAGAGCACACGU
B14: target 1 MT 5'PFS UGU 3'PFS CAU (mixed)
RNA 1: CACCCGUGCAAAAAUGCAGGGGUCUAAAACUGAGCGGAUAACCUCUCUAUGG
RNA 2: GGGAAUGGAUCCACAUCUACGAAUUCUGUCCAUAGAGAGGUUAUCCGCUCACAUAGAUCGGAAGAGCACACGU
B15: target 1 MT 5'PFS UUG 3'PFS AUG (mixed)
RNA 1: CACCCGUGCAAAAAUGCAGGGGUCUAAAACUGAGCGGAUAACCUCUCUAUGG
RNA 2: GGGAAUGGAUCCACAUCUACGAAUUCUUGCCAUAGAGAGGUUAUCCGCUCAAUGAGAUCGGAAGAGCACACGU
B16: target 1 MT 5'PFS UCG 3'PFS AUA (mixed)
RNA 1: CACCCGUGCAAAAAUGCAGGGGUCUAAAACUGAGCGGAUAACCUCUCUAUGG
RNA 2: GGGAAUGGAUCCACAUCUACGAAUUCUCGCCAUAGAGAGGUUAUCCGCUCAAUAAGAUCGGAAGAGCACACGU
B17: target 1 MT 5'PFS GUU 3'PFS GGG (mixed)
RNA 1: CACCCGUGCAAAAAUGCAGGGGUCUAAAACUGAGCGGAUAACCUCUCUAUGG
RNA 2: GGGAAUGGAUCCACAUCUACGAAUUCGUUCCAUAGAGAGGUUAUCCGCUCAGGGAGAUCGGAAGAGCACACGU
B18: target 1 MT 5'PFS UUA 3'PFS CAG (mixed)
RNA 1: CACCCGUGCAAAAAUGCAGGGGUCUAAAACUGAGCGGAUAACCUCUCUAUGG
RNA 2: GGGAAUGGAUCCACAUCUACGAAUUCUUACCAUAGAGAGGUUAUCCGCUCACAGAGAUCGGAAGAGCACACGU
B19: target 1 MT 5'PFS CUA 3'PFS CGU (mixed)
RNA 1: CACCCGUGCAAAAAUGCAGGGGUCUAAAACUGAGCGGAUAACCUCUCUAUGG
RNA 2: GGGAAUGGAUCCACAUCUACGAAUUCCUACCAUAGAGAGGUUAUCCGCUCACGUAGAUCGGAAGAGCACACGU
B20: target 1 insC 3' of 18,insC 3' of 3 (mixed)
RNA 1: CACCCGUGCAAAAAUGCAGGGGUCUAAAACUGAGCGGAUAACCUCUCUAUGG
RNA 2: GGGAAUGGAUCCACAUCUACGAAUUCGUACCAUACGAGAGGUUAUCCGCUCCACCGAGAUCGGAAGAGCACACGU
B21: target 1 MT 5'PFS CUG 3'PFS ACG (mixed)
RNA 1: CACCCGUGCAAAAAUGCAGGGGUCUAAAACUGAGCGGAUAACCUCUCUAUGG
RNA 2: GGGAAUGGAUCCACAUCUACGAAUUCCUGCCAUAGAGAGGUUAUCCGCUCAACGAGAUCGGAAGAGCACACGU
B22: target 1 MT 5'PFS CUG 3'PFS ACC (mixed)
RNA 1: CACCCGUGCAAAAAUGCAGGGGUCUAAAACUGAGCGGAUAACCUCUCUAUGG
RNA 2: GGGAAUGGAUCCACAUCUACGAAUUCCUGCCAUAGAGAGGUUAUCCGCUCAACCAGAUCGGAAGAGCACACGU
B23: target 1 MT 5'PFS GUU 3'PFS AGA (mixed)
RNA 1: CACCCGUGCAAAAAUGCAGGGGUCUAAAACUGAGCGGAUAACCUCUCUAUGG
RNA 2: GGGAAUGGAUCCACAUCUACGAAUUCGUUCCAUAGAGAGGUUAUCCGCUCAAGAAGAUCGGAAGAGCACACGU
B24: target 1 MT 5'PFS UGC 3'PFS UCC (mixed)
RNA 1: CACCCGUGCAAAAAUGCAGGGGUCUAAAACUGAGCGGAUAACCUCUCUAUGG
RNA 2: GGGAAUGGAUCCACAUCUACGAAUUCUGCCCAUAGAGAGGUUAUCCGCUCAUCCAGAUCGGAAGAGCACACGU
B25: target 1 MT 5'PFS CUG 3'PFS ACA (mixed)
RNA 1: CACCCGUGCAAAAAUGCAGGGGUCUAAAACUGAGCGGAUAACCUCUCUAUGG
RNA 2: GGGAAUGGAUCCACAUCUACGAAUUCCUGCCAUAGAGAGGUUAUCCGCUCAACAAGAUCGGAAGAGCACACGU
B26: target 1 MT 5'PFS GAG 3'PFS UGU (mixed)
RNA 1: CACCCGUGCAAAAAUGCAGGGGUCUAAAACUGAGCGGAUAACCUCUCUAUGG
RNA 2: GGGAAUGGAUCCACAUCUACGAAUUCGAGCCAUAGAGAGGUUAUCCGCUCAUGUAGAUCGGAAGAGCACACGU
B27: target 1 MT 5'PFS UUG 3'PFS AUC (mixed)
RNA 1: CACCCGUGCAAAAAUGCAGGGGUCUAAAACUGAGCGGAUAACCUCUCUAUGG
RNA 2: GGGAAUGGAUCCACAUCUACGAAUUCUUGCCAUAGAGAGGUUAUCCGCUCAAUCAGAUCGGAAGAGCACACGU

The target of the data set is T1, EsCas13d, nuclease-dead (Eubacterium siraeum, UniProt B0MS50, R295A;H300A;R849A;H854A).
T1 sequence: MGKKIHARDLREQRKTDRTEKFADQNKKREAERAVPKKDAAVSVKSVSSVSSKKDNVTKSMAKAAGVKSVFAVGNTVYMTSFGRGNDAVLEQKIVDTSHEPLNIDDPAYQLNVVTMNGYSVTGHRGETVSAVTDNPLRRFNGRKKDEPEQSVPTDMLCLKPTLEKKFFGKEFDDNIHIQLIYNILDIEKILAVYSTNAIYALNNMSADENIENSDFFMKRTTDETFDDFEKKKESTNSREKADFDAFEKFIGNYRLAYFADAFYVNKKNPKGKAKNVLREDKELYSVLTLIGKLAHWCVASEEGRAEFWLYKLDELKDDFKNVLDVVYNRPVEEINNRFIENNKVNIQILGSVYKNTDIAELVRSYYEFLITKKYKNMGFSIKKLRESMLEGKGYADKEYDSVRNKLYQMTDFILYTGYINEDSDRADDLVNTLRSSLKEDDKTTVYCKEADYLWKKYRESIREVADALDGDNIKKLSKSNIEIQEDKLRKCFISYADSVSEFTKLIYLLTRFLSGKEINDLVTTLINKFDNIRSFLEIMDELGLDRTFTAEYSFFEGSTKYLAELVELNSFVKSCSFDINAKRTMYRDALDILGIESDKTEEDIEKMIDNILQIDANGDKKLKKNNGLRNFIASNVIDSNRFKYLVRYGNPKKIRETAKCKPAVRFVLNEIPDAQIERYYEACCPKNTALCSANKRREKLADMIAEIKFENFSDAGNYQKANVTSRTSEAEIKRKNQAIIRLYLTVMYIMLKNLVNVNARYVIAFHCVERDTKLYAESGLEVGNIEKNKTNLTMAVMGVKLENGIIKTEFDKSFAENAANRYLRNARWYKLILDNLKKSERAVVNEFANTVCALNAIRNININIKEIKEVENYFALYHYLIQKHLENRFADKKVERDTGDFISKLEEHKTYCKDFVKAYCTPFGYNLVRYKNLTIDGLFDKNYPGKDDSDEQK
The data set can be described thus: crRNA (strand 1, pre-loaded); Mg2+; 40 mM Tris-HCl pH 7.5, 150 mM NaCl, 6 mM MgCl2, 1 mM DTT, 0.1% Tween-20, 0.2 mg/ml BSA; 25 C; 10 min per concentration, then washed. The conditions noted are these: tags: His6-TwinStrep-SUMO cleaved; N-terminal SNAP kept (SNAP-Surface 488); label: 3' end held by stalled T7 RNA polymerase.
As to B1, the affinity, expressed as Kd, was 22 ± 7.5 nM. Molecule B2 registered a Kd of 58.5 ± 20 nM. In turn, B3 returned a Kd of 15.6 ± 3.35 nM. Compared with the last molecule, the Kd is about 3.8-fold lower. The molecule B4 yielded a dissociation constant (Kd) of 11.5 ± 5.3 nM.

Molecule B5 returned a dissociation constant Kd of 22.9 ± 4.25 nM.

B6 registered a Kd of 49 ± 21 nM. In turn, B7 had a dissociation constant (Kd) of 66.5 ± 11.5 nM. Molecule B8 yielded a dissociation constant (Kd) of 8.55 ± 3.25 nM. The molecule B9 yielded a dissociation constant Kd of 21.7 ± 3.85 nM. Next, B10: 17.9 ± 0.9 nM; B11: 28.5 ± 6.5 nM. In the case of B12, the dissociation constant (Kd) came out at 12.1 ± 2.7 nM.

Turning to B13, binding was characterised by a dissociation constant (Kd) of 27.5 ± 8 nM. For B14, the Kd is around 52 nM. For the molecule B15, the equilibrium dissociation constant (Kd) turned out to be 83 ± 35 nM. As for B16, the figure is 37.5 ± 10.5 nM; as for B17, 81 ± 29 nM.

For the molecule B18, the dissociation constant Kd stood at 49.5 ± 20 nM. B19 returned an equilibrium dissociation constant (Kd) of 17 ± 6 nM. Molecule B20 gave a dissociation constant (Kd) of 32 ± 4 nM. This Kd lies about 1.9-fold higher than the previous one.

Turning to B21, the Kd was 6.85 ± 1.6 nM. Next, B22: 6.1 ± 1.45 nM; B23: 27.4 ± 5.25 nM. B24 returned a Kd of 30 ± 10.5 nM. Consider B25, for which the Kd is 8.25 ± 2.25 nM.

As to B26, the Kd is 64.5 ± 30.5 nM. Next, B27: 37.5 ± 13 nM.

Values taken from PMC10786891, “Massively parallel profiling of RNA-targeting CRISPR-Cas13d”.
